This passage reports Kd results from article PMC2955986 (Journal of thrombosis and haemostasis : JTH, 2010).

One test deals with TFPI (Homo sapiens) (UniProt P10646). The following applies: cited from earlier work.
Test [1] addresses Soluble tissue factor (residues 1-218). Briefly: fluid phase binding assay.
For test [2] the target is unchanged. The test can be described thus: fluid phase binding assay. This is another data set of the same source.
In test [3] the target is Factor X. Briefly: fluid phase binding assay.
Test [4] has as its target T1, factor X (Homo sapiens, UniProt P00742).
T1 chain: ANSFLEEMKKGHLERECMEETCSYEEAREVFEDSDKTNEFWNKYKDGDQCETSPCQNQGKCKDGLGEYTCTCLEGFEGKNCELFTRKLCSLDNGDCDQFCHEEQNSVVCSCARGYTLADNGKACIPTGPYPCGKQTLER

For test [5], the target named is Soluble tissue factor (residues 1-218). The test can be described thus: ELISA. On the technique in general: In an ELISA, binding on a coated surface is turned into a signal by an enzyme label.
The target in test [6] is T2, Zn^2+-containing protein S (immunoaffinity-purified) (UniProt P07225 42-676).
T2 sequence (looked up): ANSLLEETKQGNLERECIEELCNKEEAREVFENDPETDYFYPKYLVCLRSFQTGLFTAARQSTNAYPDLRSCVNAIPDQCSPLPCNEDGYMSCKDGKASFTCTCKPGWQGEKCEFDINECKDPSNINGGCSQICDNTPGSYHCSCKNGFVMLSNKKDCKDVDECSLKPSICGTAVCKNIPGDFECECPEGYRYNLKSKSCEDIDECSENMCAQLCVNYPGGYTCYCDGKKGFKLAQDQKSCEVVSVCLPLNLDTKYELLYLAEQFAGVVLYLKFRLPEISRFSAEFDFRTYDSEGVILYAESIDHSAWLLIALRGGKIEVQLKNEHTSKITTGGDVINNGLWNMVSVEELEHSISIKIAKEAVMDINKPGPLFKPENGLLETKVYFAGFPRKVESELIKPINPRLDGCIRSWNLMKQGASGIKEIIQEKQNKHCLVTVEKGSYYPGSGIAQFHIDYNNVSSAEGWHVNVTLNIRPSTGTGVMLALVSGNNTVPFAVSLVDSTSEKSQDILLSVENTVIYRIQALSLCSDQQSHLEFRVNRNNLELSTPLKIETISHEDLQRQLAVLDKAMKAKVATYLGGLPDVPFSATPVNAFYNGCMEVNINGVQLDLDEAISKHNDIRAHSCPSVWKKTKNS
The test can be described thus: fluid phase binding assay.

Chain of TFPI (Homo sapiens) (P10646 29-304): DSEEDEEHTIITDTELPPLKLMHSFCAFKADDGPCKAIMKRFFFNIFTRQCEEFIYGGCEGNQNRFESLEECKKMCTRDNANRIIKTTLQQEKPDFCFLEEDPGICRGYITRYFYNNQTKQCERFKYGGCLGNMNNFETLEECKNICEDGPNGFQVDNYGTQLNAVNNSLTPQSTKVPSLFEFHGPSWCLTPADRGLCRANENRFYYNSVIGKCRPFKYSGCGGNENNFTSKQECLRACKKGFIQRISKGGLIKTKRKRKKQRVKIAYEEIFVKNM

With protein S (from UniProt P07225), in the test with TFPI (Homo sapiens), the Kd (in general, a measure of binding affinity in units of concentration) is 21 nM.

B1: Zn^2+-containing protein S (immunoaffinity-purified) (natural protein)
chain: ANSLLEETKQGNLERECIEELCNKEEAREVFENDPETDYFYPKYLVCLRSFQTGLFTAARQSTNAYPDLRSCVNAIPDQCSPLPCNEDGYMSCKDGKASFTCTCKPGWQGEKCEFDINECKDPSNINGGCSQICDNTPGSYHCSCKNGFVMLSNKKDCKDVDECSLKPSICGTAVCKNIPGDFECECPEGYRYNLKSKSCEDIDECSENMCAQLCVNYPGGYTCYCDGKKGFKLAQDQKSCEVVSVCLPLNLDTKYELLYLAEQFAGVVLYLKFRLPEISRFSAEFDFRTYDSEGVILYAESIDHSAWLLIALRGGKIEVQLKNEHTSKITTGGDVINNGLWNMVSVEELEHSISIKIAKEAVMDINKPGPLFKPENGLLETKVYFAGFPRKVESELIKPINPRLDGCIRSWNLMKQGASGIKEIIQEKQNKHCLVTVEKGSYYPGSGIAQFHIDYNNVSSAEGWHVNVTLNIRPSTGTGVMLALVSGNNTVPFAVSLVDSTSEKSQDILLSVENTVIYRIQALSLCSDQQSHLEFRVNRNNLELSTPLKIETISHEDLQRQLAVLDKAMKAKVATYLGGLPDVPFSATPVNAFYNGCMEVNINGVQLDLDEAISKHNDIRAHSCPSVWKKTKNS
For B1, the Kd was 41 nM in test [1], 41 nM in test [2] and 127 nM with Factor X [3].

B2: protein S (protein)
chain: ANSLLEETKQGNLERECIEELCNKEEAREVFENDPETDYFYPKYLVCLRSFQTGLFTAARQSTNAYPDLRSCVNAIPDQCSPLPCNEDGYMSCKDGKASFTCTCKPGWQGEKCEFDINECKDPSNINGGCSQICDNTPGSYHCSCKNGFVMLSNKKDCKDVDECSLKPSICGTAVCKNIPGDFECECPEGYRYNLKSKSCEDIDECSENMCAQLCVNYPGGYTCYCDGKKGFKLAQDQKSCEVVSVCLPLNLDTKYELLYLAEQFAGVVLYLKFRLPEISRFSAEFDFRTYDSEGVILYAESIDHSAWLLIALRGGKIEVQLKNEHTSKITTGGDVINNGLWNMVSVEELEHSISIKIAKEAVMDINKPGPLFKPENGLLETKVYFAGFPRKVESELIKPINPRLDGCIRSWNLMKQGASGIKEIIQEKQNKHCLVTVEKGSYYPGSGIAQFHIDYNNVSSAEGWHVNVTLNIRPSTGTGVMLALVSGNNTVPFAVSLVDSTSEKSQDILLSVENTVIYRIQALSLCSDQQSHLEFRVNRNNLELSTPLKIETISHEDLQRQLAVLDKAMKAKVATYLGGLPDVPFSATPVNAFYNGCMEVNINGVQLDLDEAISKHNDIRAHSCPSVWKKTKNS
modifications: Zn2+-containing
Molecule B2 returned a Kd with factor X [4] of approximately 130 nM.

B3: Zn^2+-reconstituted commercial protein S (natural protein)
chain: ANSLLEETKQGNLERECIEELCNKEEAREVFENDPETDYFYPKYLVCLRSFQTGLFTAARQSTNAYPDLRSCVNAIPDQCSPLPCNEDGYMSCKDGKASFTCTCKPGWQGEKCEFDINECKDPSNINGGCSQICDNTPGSYHCSCKNGFVMLSNKKDCKDVDECSLKPSICGTAVCKNIPGDFECECPEGYRYNLKSKSCEDIDECSENMCAQLCVNYPGGYTCYCDGKKGFKLAQDQKSCEVVSVCLPLNLDTKYELLYLAEQFAGVVLYLKFRLPEISRFSAEFDFRTYDSEGVILYAESIDHSAWLLIALRGGKIEVQLKNEHTSKITTGGDVINNGLWNMVSVEELEHSISIKIAKEAVMDINKPGPLFKPENGLLETKVYFAGFPRKVESELIKPINPRLDGCIRSWNLMKQGASGIKEIIQEKQNKHCLVTVEKGSYYPGSGIAQFHIDYNNVSSAEGWHVNVTLNIRPSTGTGVMLALVSGNNTVPFAVSLVDSTSEKSQDILLSVENTVIYRIQALSLCSDQQSHLEFRVNRNNLELSTPLKIETISHEDLQRQLAVLDKAMKAKVATYLGGLPDVPFSATPVNAFYNGCMEVNINGVQLDLDEAISKHNDIRAHSCPSVWKKTKNS
In test [5], B3 returned a Kd of 39 nM.

B4: Full length nonlipidated tissue factor (natural protein, UniProt P13726 33-295, looked up)
chain: SGTTNTVAAYNLTWKSTNFKTILEWEPKPVNQVYTVQISTKSGDWKSKCFYTTDTECDLTDEIVKDVKQTYLARVFSYPAGNVESTGSAGEPLYENSPEFTPYLETNLGQPTIQSFEQVGTKVNVTVEDERTLVRRNNTFLSLRDVFGKDLIYTLYYWKSSSSGKKTAKTNTNEFLIDVDKGENYCFSVQAVIPSRTVNRKSTDSPVECMGQEKGEFREIFYIIGAVVFVVIILVIILAISLHKCRKAGVGQSWKENSPLNVS
In test [6], B4 registered a Kd of 41 nM.
